Reference: PMC12041258
Where two headings read alike, the source gives them in different places.

Tests used:
[1] = target: C. crescentus DriD(78-327) (C. crescentus); assay: SEC
[2] = target: C. crescentus DriD(78-327) (C. crescentus); assay: SEC; remark: listed apart in the source
[3] = target: C. crescentus DriD DNABD, DriD(1-70) (C. crescentus); assay: MST

| stoichiometry N [1] | stoichiometry N [2] | Kd [3] | Substance |
| --- | --- | --- | --- |
| 2 | 2 |  | C. crescentus DriD(78-327) (domain or fragment) |
|  |  | 15 µM | His-tag free C. crescentus DriD(78-327) (domain or fragment) |
